Assay results from patent publication US20210388087A1 (Chugai, published 2021).
Substitutions are numbered along the chain they refer to. Each block holds one binder with its values, some of them ahead of it.

Target: T1, CD3 epsilon homodimer protein (UniProt P07766 23-126)
T1 construct: also called CD3 (CD3 epsilon)
Assay: SPR Biacore T200, CD3e homodimer on chip, vs unaltered GLS3000 antibody

T1 sequence (P07766 23-126): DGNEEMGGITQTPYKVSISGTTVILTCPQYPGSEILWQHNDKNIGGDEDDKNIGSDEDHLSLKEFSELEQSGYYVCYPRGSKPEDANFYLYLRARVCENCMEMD

B2: GLS3000 S27aD (antibody, name in Kabat numbering, V domains shown)
VH: QVQLVESGGGVVQPGRSLRLSCAASGFTFSNAWMHWVRQAPGKGLEWVAQIKAKSNNYATYYAESVKGRFTISRDDSKNSLYLQMNSLKTEDTAVYYCRYVHYGAYYGVDAWGQGTTVTVSS
VL: DIVMTQSPLSLPVTPGEPASISCRSSQDLVHSNRNTYLHWYQQKPGQAPRLLIYKVSNRFSGVPDRFSGSGSGTDFTLKISRVEAEDVGVYYCGQGTQVPYTFGQGTKLEIK
notes: one-arm IgG as m2
ratio of amounts bound (Z=Y/X): 0.79

B4: GLS3000 S27eG (antibody, name in Kabat numbering, V domains shown)
VH: B2 VH
VL: B2 VL with D28S, S32G
notes: one-arm IgG as m2
ratio of amounts bound (Z=Y/X): 1.04

B5: GLS3000 S27eN (antibody, name in Kabat numbering, V domains shown)
VH: B2 VH
VL: B2 VL with D28S, S32N
notes: one-arm IgG as m2
ratio of amounts bound (Z=Y/X): 1.16

B7: GLS3000 S27eP (antibody, name in Kabat numbering, V domains shown)
VH: B2 VH
VL: B2 VL with D28S, S32P
notes: one-arm IgG as m2
ratio of amounts bound (Z=Y/X): 1.26

B9: GLS3000 S25E (antibody, name in Kabat numbering, V domains shown)
VH: B2 VH
VL: B2 VL with S25E, D28S
notes: one-arm IgG as m2
ratio of amounts bound (Z=Y/X): 0.21

B12: GLS3000 S25T (antibody, name in Kabat numbering, V domains shown)
VH: B2 VH
VL: B2 VL with S25T, D28S
notes: one-arm IgG as m2
ratio of amounts bound (Z=Y/X): 0.83

B13: GLS3000 S27eQ (antibody, name in Kabat numbering, V domains shown)
VH: B2 VH
VL: B2 VL with D28S, S32Q
notes: one-arm IgG as m2
ratio of amounts bound (Z=Y/X): 1.1

B14: GLS3000 S27eM (antibody, name in Kabat numbering, V domains shown)
VH: B2 VH
VL: B2 VL with D28S, S32M
notes: one-arm IgG as m2
ratio of amounts bound (Z=Y/X): 1.23

B15: GLS3000 S27eH (antibody, name in Kabat numbering, V domains shown)
VH: B2 VH
VL: B2 VL with D28S, S32H
notes: one-arm IgG as m2
ratio of amounts bound (Z=Y/X): 1.23

B17: GLS3000 S27aG (antibody, name in Kabat numbering, V domains shown)
VH: B2 VH
VL: B2 VL with D28G
notes: one-arm IgG as m2
ratio of amounts bound (Z=Y/X): 1.03

B18: GLS3000 S26D (antibody, name in Kabat numbering, V domains shown)
VH: B2 VH
VL: B2 VL with S26D, D28S
notes: one-arm IgG as m2
ratio of amounts bound (Z=Y/X): 0.86

B22: GLS3000 S26P (antibody, name in Kabat numbering, V domains shown)
VH: B2 VH
VL: B2 VL with S26P, D28S
notes: one-arm IgG as m2
ratio of amounts bound (Z=Y/X): 0.78

B23: GLS3000 S25M (antibody, name in Kabat numbering, V domains shown)
VH: B2 VH
VL: B2 VL with S25M, D28S
notes: one-arm IgG as m2
ratio of amounts bound (Z=Y/X): 0.31

B24: GLS3000 S27aI (antibody, name in Kabat numbering, V domains shown)
VH: B2 VH
VL: B2 VL with D28I
notes: one-arm IgG as m2
ratio of amounts bound (Z=Y/X): 1

B25: GLS3000 S27eF (antibody, name in Kabat numbering, V domains shown)
VH: B2 VH
VL: B2 VL with D28S, S32F
notes: one-arm IgG as m2
ratio of amounts bound (Z=Y/X): 1.32

B26: GLS3000 S27eI (antibody, name in Kabat numbering, V domains shown)
VH: B2 VH
VL: B2 VL with D28S, S32I
notes: one-arm IgG as m2
ratio of amounts bound (Z=Y/X): 1.07

B27: GLS3000 S27aE (antibody, name in Kabat numbering, V domains shown)
VH: B2 VH
VL: B2 VL with D28E
notes: one-arm IgG as m2
ratio of amounts bound (Z=Y/X): 0.81

B30: GLS3000 S27eK (antibody, name in Kabat numbering, V domains shown)
VH: B2 VH
VL: B2 VL with D28S, S32K
notes: one-arm IgG as m2
ratio of amounts bound (Z=Y/X): 1.59

B32: GLS3000 S27eL (antibody, name in Kabat numbering, V domains shown)
VH: B2 VH
VL: B2 VL with D28S, S32L
notes: one-arm IgG as m2
ratio of amounts bound (Z=Y/X): 1.17

B33: GLS3000 S25A (antibody, name in Kabat numbering, V domains shown)
VH: B2 VH
VL: B2 VL with S25A, D28S
notes: one-arm IgG as m2
ratio of amounts bound (Z=Y/X): 0.92

Second part, the binder after the results:

ratio of amounts bound (Z=Y/X): 0.92
B1: GLS3000 R77S (antibody, name in Kabat numbering, V domains shown)
VH: B2 VH
VL: B2 VL with D28S, R82S
notes: one-arm IgG as m2

ratio of amounts bound (Z=Y/X): 0.99
B3: GLS3000 S27aP (antibody, name in Kabat numbering, V domains shown)
VH: B2 VH
VL: B2 VL with D28P
notes: one-arm IgG as m2

ratio of amounts bound (Z=Y/X): 0.69
B6: GLS3000 S27eD (antibody, name in Kabat numbering, V domains shown)
VH: B2 VH
VL: B2 VL with D28S, S32D
notes: one-arm IgG as m2

ratio of amounts bound (Z=Y/X): 1.1
B8: GLS3000 S27aN (antibody, name in Kabat numbering, V domains shown)
VH: B2 VH
VL: B2 VL with D28N
notes: one-arm IgG as m2

ratio of amounts bound (Z=Y/X): 0.18
B10: GLS3000 S25D (antibody, name in Kabat numbering, V domains shown)
VH: B2 VH
VL: B2 VL with S25D, D28S
notes: one-arm IgG as m2

ratio of amounts bound (Z=Y/X): 0.76
B11: GLS3000 S27eE (antibody, name in Kabat numbering, V domains shown)
VH: B2 VH
VL: B2 VL with D28S, S32E
notes: one-arm IgG as m2

ratio of amounts bound (Z=Y/X): 0.24
B16: GLS3000 S25L (antibody, name in Kabat numbering, V domains shown)
VH: B2 VH
VL: B2 VL with S25L, D28S
notes: one-arm IgG as m2

ratio of amounts bound (Z=Y/X): 1.1
B19: GLS3000 S27aY (antibody, name in Kabat numbering, V domains shown)
VH: B2 VH
VL: B2 VL with D28Y
notes: one-arm IgG as m2

ratio of amounts bound (Z=Y/X): 0.73
B20: GLS3000 S25V (antibody, name in Kabat numbering, V domains shown)
VH: B2 VH
VL: B2 VL with S25V, D28S
notes: one-arm IgG as m2

ratio of amounts bound (Z=Y/X): 1.03
B21: GLS3000 S27eA (antibody, name in Kabat numbering, V domains shown)
VH: B2 VH
VL: B2 VL with D28S, S32A
notes: one-arm IgG as m2

ratio of amounts bound (Z=Y/X): 1.01
B28: GLS3000 S25P (antibody, name in Kabat numbering, V domains shown)
VH: B2 VH
VL: B2 VL with S25P, D28S
notes: one-arm IgG as m2

ratio of amounts bound (Z=Y/X): 0.74
B29: GLS3000 S26E (antibody, name in Kabat numbering, V domains shown)
VH: B2 VH
VL: B2 VL with S26E, D28S
notes: one-arm IgG as m2

ratio of amounts bound (Z=Y/X): 0.53
B31: GLS3000 S25I (antibody, name in Kabat numbering, V domains shown)
VH: B2 VH
VL: B2 VL with S25I, D28S
notes: one-arm IgG as m2
